In publication PMC3244695 (2012):

Target: T1, NgR1 (Mus musculus, UniProt Q99PI8)
T1 chain: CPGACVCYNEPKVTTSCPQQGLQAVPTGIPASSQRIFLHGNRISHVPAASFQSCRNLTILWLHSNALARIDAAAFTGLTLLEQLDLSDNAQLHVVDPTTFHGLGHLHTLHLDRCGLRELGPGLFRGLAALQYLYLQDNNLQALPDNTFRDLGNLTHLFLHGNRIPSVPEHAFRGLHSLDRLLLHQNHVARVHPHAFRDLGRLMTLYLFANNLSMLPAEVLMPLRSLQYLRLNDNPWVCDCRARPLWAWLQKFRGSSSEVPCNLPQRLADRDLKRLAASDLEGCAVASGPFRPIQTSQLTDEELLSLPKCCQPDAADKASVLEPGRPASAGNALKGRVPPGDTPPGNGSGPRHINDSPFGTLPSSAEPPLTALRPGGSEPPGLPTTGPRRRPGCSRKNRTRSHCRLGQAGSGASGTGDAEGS
Test: AP-fusion cell-surface saturation binding

B1: LOTUS (Crtac1B) 29-602 (antibody)
chain: SQRAEPMFTAVTNSVLPPDYDSNPTQLNYGVAVTDVDHDGDFEIVVAGYTGPNLVLKYNRAQNRLVNIAVDERSSPYYALRDRQGNAIGVTACDIDGDGREEIYFLNTNNAFSGVATYTDKLFKFRNNRWEDILSDDVNVARGVASLFAGRSVACVDRTGSGRYSIYIANYAYGDVGPDALIEMDPEASDLSRGILALRDVAAEAGVSKYTAGRGVSVGPILSSSASDIFCDNENGPNFLFHNQGNGTFVDTAASAGVDDPHQHGRGVALADFNRDGKVDIVYGNWNGPHRLYLQMSAHGKVRFRDIASPKFSTPSPVRTVIAADFDNDQELEVFFNNIAYRSSSANRLFRVIRREHGDPLIEELNPGDALEPEGRGTGGVVTDFDGDGMLDLILSHGESMAQPLSVFRGNQGFSNNWLRVVPRTRFGAFARGAKVVLYTKKSGAHLRIIDGGSGYLCEMEPVAHFGLGRDEASSVEVTWPDGKMVSRSVASEEMNSVLEILYPQDEDKLQNTAPLECGQGFSQQDNGHCMDTNECIQFPFVCPRDKPVCVNTYGSYRCRTNKRCNRGYEPNED
modifications: alkaline phosphatase fusion of LOTUS
- Kd: ~6.8 nM
